Data published in US20240132589A1 (ONCORESPONSE, published 2024).
Read-outs that look alike come from different tables or passages of the source.

Assays:
[1] = biological target: T1, Human LILRB2 on primary human myeloid cells (human, UniProt Q8N423 22-597); test: flow cytometry, AF647-conjugated antibody on human monocytes (15 subjects), average
T1 construct: whole, on cells; the cell type is named under assay; also called LILRB2 on monocytes, M0 and M2c macrophages, myeloid dendritic cells, neutrophils
Procedure: (§1) Anti-LILRB2 antibodies were evaluated for their ability to bind myeloid cell subsets expressing LILRB2, including monocytes, M0 macrophages, and M2c macrophages. M2c macrophages are used as a surrogate for tumor-associated macrophages, a suppressive macrophage commonly found in the tumor microenvironment. Frozen monocytes were removed from storage in vapor phase liquid nitrogen and thawed by gentle swirling in a water bath at 37° C., then resuspended in X-VIVO™ 15 media with 10% FBS. PBMC were placed in a 15 mL conical tube and centrifuged at 300×g for 5 minutes, then supernatant was removed. Cells were resuspended in Assay Medium (X-VIVO™ 15+10% FBS) at a cell density of 2.5×10⁵ cells/mL. Cells were plated into 96-well flat bottom plates at 100 μL/well (25K cells/well). M0 and M2c macrophages were generated as described in Example 10 and collected from flasks by incubation for 15 min at RT in Macrophage Detachment Solution DXF, then removed from the flask into X-VIVO™ 15 medium. Following centrifugation, the cells were resuspended in FACS Blocking Buffer D (FACS Buffer+10% FBS+0.5 mg/mL human IgG1) then incubated at 4° C. for 30 minutes. […]

[2] = biological target: T1, Human LILRB2 on primary human myeloid …; test: flow cytometry, AF647-conjugated antibody on human M0 macrophages (7 subjects), average
Procedure: as §1

[3] = biological target: T2, Recombinant human LILRB2 protein (ELISA antigen) (human, UniProt Q8N423 22-460); test: ELISA, plate-coated recombinant human LILRB2
T2 construct: also called LILRB2-His; recombinant LILRB2
Procedure: To confirm binding to human and cynomolgus LILRB2, antibodies in supernatants were evaluated for binding by enzyme-linked immunosorbent assay (ELISA). Recombinant LILRB2 proteins (human: SEQ ID NO: 48; cynomolgus) were diluted in PBS to 2 μg/mL and added to 384-well high-binding ELISA plates (Greiner Bio-One Microlon™) at 25 μL/well and incubated at 4° C. overnight. The plates were washed three times with Wash Buffer (0.05% Tween® 20 in PBS), using a microplate washer and then blocked with 90 μL/well of ELISA Blocking Buffer A (1% BSA in PBS) for 1 hour at room temperature (RT). After blocking, 25 μL/well of LILRB2 antibodies or isotype control were added to the plates and incubated for 1 hour at RT. After primary antibody binding, plates were washed three times with Wash Buffer using a microplate washer. Secondary detection antibody (HRP-goat anti-rabbit Fab fragment) was diluted to 1:3000 in assay diluent (1% BSA in PBS) and 25 μL/well was added to plates and incubated at RT protected from light for 1 hour. Following incubation, plates were washed four times with Wash Buffer, using a microplate washer. […] After development, the reaction was stopped by addition of 25 μL/well of 0.3 M HCl, and plates were read using an EnVision (Perkin Elmer) microplate reader at 450 nm. EC₅₀ values were calculated based on log concentration of the primary antibodies at optical density at 450 nm.

[4] = biological target: T2, Recombinant human LILRB2 protein (ELISA …); test: ELISA, plate-coated recombinant human LILRB2; remark: listed apart in the source
Procedure: To confirm binding to human and cynomolgus LILRB2, antibodies in supernatants were evaluated for binding by enzyme-linked immunosorbent assay (ELISA). Recombinant LILRB2 proteins (human: SEQ ID NO: 48; cynomolgus) were diluted in PBS to 2 μg/mL and added to 384-well high-binding ELISA plates (Greiner Bio-One Microlon™) at 25 μL/well and incubated at 4° C. overnight. The plates were washed three times with Wash Buffer (0.05% Tween® 20 in PBS), using a microplate washer and then blocked with 90 μL/well of ELISA Blocking Buffer A (1% BSA in PBS) for 1 hour at room temperature (RT). After blocking, 25 μL/well of LILRB2 antibodies or isotype control were added to the plates and incubated for 1 hour at RT. After primary antibody binding, plates were washed three times with Wash Buffer using a microplate washer. Secondary detection antibody (HRP-goat anti-rabbit Fab fragment) was diluted to 1:3000 in assay diluent (1% BSA in PBS) and 25 μL/well was added to plates and incubated at RT protected from light for 1 hour. Following incubation, plates were washed four times with Wash Buffer, using a microplate washer. After removal of the final wash, 25 μL/well of 1-Step™ Ultra TMB-ELISA Substrate Solution (Thermo Fisher, No. 34028) was added and plates were incubated for 5-10 min at RT, protected from light. After development, the reaction was stopped by addition of 25 μL/well of 0.3 M HCl, and plates were read using an EnVision (Perkin Elmer) microplate reader at 450 nm. EC₅₀ values were calculated based on log concentration of the primary antibodies at optical density at 450 nm.
Select humanized variant antibodies were purified and tested for their ability to bind human LILRB2 by ELISA, using the method described in Example 2, and binding to HEK293T cells expressing human LILRB2, using the method described in Example 4. Representative data are shown for IgG4 variants in Table 6.

LILRB2-Fc protein = biological target: T3, LILRB2-Fc protein (human, UniProt Q8N423 22-460, limits assumed); test: blocking ELISA: LILRB2-Fc pre-incubated with antibody titration, binding to coated monomer HLA-G
T3 construct: also called human LILRB2-Fc; not shown: Fc part
Procedure: Tumor-associated HLA-G is an HLA Class I ligand for LILRB2. Binding of HLA-G to LILRB2 induces an immune suppressive signal in LILRB2 expressing myeloid cells. To determine if the anti-LILRB2 antibodies block the HLA-G-LILRB2 interaction and prevent the induction of an inhibitory signal, blocking ELISA assays in a dose titration were performed. 384-well plates were coated with monomer HLA-G (Fred Hutchinson Cancer Research Center, No. bHLA-G) at a concentration of 5 μg/mL, diluted in PBS, then plates were incubated at RT for 1 hour. Plates were rinsed with Wash Buffer three times, then blocked with Blocking Buffer A for 30 minutes at RT. During blocking incubation step, LILRB2-Fc protein and antibody titrations were prepared in Blocking Buffer A. LILRB2-Fc protein was then incubated with antibody titrations for 30 minutes at RT to allow for binding prior to addition onto plate. Plates were rinsed three times with Wash Buffer, then 25 μL of protein/antibody mixture was added per well and incubated for 1 hour at RT. Following antibody incubation, plates were washed three times with Wash Buffer. Anti-human IgG Fc-HRP secondary antibody was diluted and added at 25 μL/well. Plates were incubated in the dark for 1 hour at RT. Following secondary antibody incubation, plates were washed four times with Wash Buffer. […] Absorbance was read at 450 nm using the Envision. […]

T2 sequence (Q8N423 other isoform, or with tags, fused parts or gaps limits assumed): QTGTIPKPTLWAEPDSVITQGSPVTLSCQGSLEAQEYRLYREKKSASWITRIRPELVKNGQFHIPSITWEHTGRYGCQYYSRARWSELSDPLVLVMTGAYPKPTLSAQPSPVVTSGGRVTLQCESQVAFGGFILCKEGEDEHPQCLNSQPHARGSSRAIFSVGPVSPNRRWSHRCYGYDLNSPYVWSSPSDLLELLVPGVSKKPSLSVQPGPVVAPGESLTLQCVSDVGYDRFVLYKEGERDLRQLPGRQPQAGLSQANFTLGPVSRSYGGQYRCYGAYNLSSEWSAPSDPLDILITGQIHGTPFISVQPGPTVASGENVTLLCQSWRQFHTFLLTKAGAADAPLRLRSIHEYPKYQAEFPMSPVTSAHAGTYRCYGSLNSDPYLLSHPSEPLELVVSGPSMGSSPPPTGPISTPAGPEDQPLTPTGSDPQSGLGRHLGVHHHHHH
T1 sequence (Q8N423 22-597): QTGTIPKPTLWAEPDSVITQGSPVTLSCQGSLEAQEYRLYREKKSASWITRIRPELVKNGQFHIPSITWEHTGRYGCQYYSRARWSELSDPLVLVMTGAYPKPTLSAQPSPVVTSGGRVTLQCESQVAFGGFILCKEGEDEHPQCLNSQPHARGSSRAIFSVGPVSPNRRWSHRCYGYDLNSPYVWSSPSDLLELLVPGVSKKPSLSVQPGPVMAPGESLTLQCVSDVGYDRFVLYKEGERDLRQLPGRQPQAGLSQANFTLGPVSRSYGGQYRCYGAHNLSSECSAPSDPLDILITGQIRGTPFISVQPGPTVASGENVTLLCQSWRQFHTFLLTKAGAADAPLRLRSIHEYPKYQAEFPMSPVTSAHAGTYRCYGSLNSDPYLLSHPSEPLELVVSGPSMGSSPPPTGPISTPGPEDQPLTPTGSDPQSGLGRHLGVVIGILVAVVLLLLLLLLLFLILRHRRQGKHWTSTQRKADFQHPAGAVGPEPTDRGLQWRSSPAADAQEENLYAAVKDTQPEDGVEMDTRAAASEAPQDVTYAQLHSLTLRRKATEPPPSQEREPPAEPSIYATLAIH
T3 sequence (Q8N423 22-460 limits assumed): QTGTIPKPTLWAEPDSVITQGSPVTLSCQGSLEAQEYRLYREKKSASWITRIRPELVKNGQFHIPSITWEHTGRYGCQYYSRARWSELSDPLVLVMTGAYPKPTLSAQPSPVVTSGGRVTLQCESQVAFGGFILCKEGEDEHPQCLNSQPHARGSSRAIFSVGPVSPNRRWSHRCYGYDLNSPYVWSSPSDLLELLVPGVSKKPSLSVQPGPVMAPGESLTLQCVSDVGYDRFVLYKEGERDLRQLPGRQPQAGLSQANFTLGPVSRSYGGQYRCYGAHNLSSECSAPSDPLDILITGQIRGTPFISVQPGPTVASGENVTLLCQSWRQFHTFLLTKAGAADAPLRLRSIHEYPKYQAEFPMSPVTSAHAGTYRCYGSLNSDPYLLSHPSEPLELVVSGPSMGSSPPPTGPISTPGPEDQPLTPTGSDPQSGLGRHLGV

B1: B2H1-55 (antibody, V domains shown)
VH: EVQLLESGGGLVQPGTSLTLSCAASGFSLSTYAMSWVRQAPGKGLEWIGWIYNDGSTYYAAWAKGRFTISKDTSKTTLYLQITSLRAEDTATYFCAREGDYIGYFNIWGQGTLVTVSS
VL: DVVMTQTPSSVSAALGGTVTIKCQASQSIGSNLAWYQLKPGQRPKLLIYAAATLASGGSSRFKGSGSGTDFTLTISSLEPADAATYYCQSYVSGSSDVAFGGGTEVVVK
notes: Humanized variant, human IgG1 / kappa; also called humanized variant B2H1-55; humanized LILRB2 antibody B2H1-55
[1]
  EC50: 0.0356 µg/mL
[2]
  EC50: 0.0748 µg/mL

B2: B2A-IgG1 (antibody)
heavy: not shown
light: DVVMTQTPSSVSAALGGTVTIKCQASQSIGSNLAWYQLKPGQRPKLLIYAAATLASGGSSRFKGSGSGTDFTLTISDLECADAATYYCQSYVSGSSDVAFGGGTEVVVKRTVAAPSVFIFPPSDEQLKSGTASVVCLLNNFYPREAKVQWKVDNALQSGNSQESVTEQDSKDSTYSLSSTLTLSKADYEKHKVYACEVTHQGLSSPVTKSFNRGEC
notes: Rabbit variable regions on human IgG1 / kappa constant regions; AF647-conjugated in some flow assays; also called B2A-IgG1 chimera; anti-LILRB2 B2A-IgG1
[3]
  EC50: 0.00381 µg/mL

B3: B2A-IgG4 (antibody)
heavy: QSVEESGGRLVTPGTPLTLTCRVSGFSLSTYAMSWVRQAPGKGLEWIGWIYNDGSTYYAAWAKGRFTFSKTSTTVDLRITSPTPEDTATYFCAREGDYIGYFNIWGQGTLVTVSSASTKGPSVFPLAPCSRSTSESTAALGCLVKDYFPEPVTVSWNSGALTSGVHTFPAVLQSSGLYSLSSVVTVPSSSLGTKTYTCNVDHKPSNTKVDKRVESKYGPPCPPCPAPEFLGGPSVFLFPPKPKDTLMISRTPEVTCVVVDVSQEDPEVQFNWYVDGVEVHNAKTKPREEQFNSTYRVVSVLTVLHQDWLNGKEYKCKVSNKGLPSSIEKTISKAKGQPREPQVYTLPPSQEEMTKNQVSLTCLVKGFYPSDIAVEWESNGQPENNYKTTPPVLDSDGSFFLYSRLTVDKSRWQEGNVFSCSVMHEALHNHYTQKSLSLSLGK
light: DVVMTQTPSSVSAALGGTVTIKCQASQSIGSNLAWYQLKPGQRPKLLIYAAATLASGGSSRFKGSGSGTDFTLTISDLECADAATYYCQSYVSGSSDVAFGGGTEVVVKRTVAAPSVFIFPPSDEQLKSGTASVVCLLNNFYPREAKVQWKVDNALQSGNSQESVTEQDSKDSTYSLSSTLTLSKADYEKHKVYACEVTHQGLSSPVTKSFNRGEC
notes: Rabbit variable regions on human IgG4 / kappa constant regions; also called B2A-IgG4 chimera; Parent B2A-IgG4
[4]
  EC50: 0.00235 µg/mL
LILRB2-Fc protein
  IC50: 0.066 µg/mL
